This note sets out measurements from PMC7067851, “Formation of pre-pore complexes of pneumolysin is accompanied by a decrease in short-range order of lipid molecules throughout vesicle bilayers” (Scientific Reports, 2020).

The series deals with the molecule itself. Description: negative-stain transmission electron microscopy; protein incubated with unilamellar liposomes (1:1 POPC/chol), stained with 1% w/v uranyl acetate on a copper grid; membrane-bound oligomeric structures visualised.

Residue numbers refer to the chain shown, from its start. Names and notes keep the numbering of the source.

B1: pneumolysin point mutant D205R (natural protein, Streptococcus pneumoniae, UniProt Q04IN8 1-471, looked up)
chain: MANKAVNDFILAMNYDKKKLLTHQGESIENRFIKEGNQLPDEFVVIERKKRSLSTNTSDISVTATNDSRLYPGALLVVDETLLENNPTLLAVDRAPMTYSIDLPGLASSDSFLQVEDPSNSSVRGAVNDLLAKWHQDYGQVNNVPARMQYEKITAHSMEQLKVKFGSDFEKTGNSLDIDFNSVHSGEKQIQIVNFKQIYYTVSVRAVKNPGDVFQDTVTVEDLKQRGISAERPLVYISSVAYGRQVYLKLETTSKSDEVEAAFEALIKGVKVAPQTEWKQILDNTEVKAVILGGDPSSGARVVTGKVDMVEDLIQEGSRFTADHPGLPISYTTSFLRDNVVATFQNSTDYVETKVTAYRNGDLLLDHSGAYVAQYYITWDELSYDHQGKEVLTPKAWDRNGQDLTAHFTTSIPLKGNVRNLSVKIRECTGLAWEWWRTVYEKTDLPLVRKRTISIWGTTLYPQVEDKVEND
notes: pneumolysin (PLY), Streptococcus pneumoniae, with D205R in domain 1; also called PLY D205R; source: purified
With B1, the binding result is listed as “binds”.

B2: pneumolysin point mutant T304R (natural protein, Streptococcus pneumoniae, UniProt Q04IN8 1-471, looked up)
chain: B1 chain with R205D, T304R
notes: pneumolysin (PLY), Streptococcus pneumoniae, with T304R in domain 3; also called PLY T304R; source: purified
With B2, the binding result is “binds”.
